Data from PMC1876262.

Target: Bovine brain tubulin (bovine) (UniProt Q6B856)
UniProt Q6B856, sequence (Q6B856 whole entry, looked up): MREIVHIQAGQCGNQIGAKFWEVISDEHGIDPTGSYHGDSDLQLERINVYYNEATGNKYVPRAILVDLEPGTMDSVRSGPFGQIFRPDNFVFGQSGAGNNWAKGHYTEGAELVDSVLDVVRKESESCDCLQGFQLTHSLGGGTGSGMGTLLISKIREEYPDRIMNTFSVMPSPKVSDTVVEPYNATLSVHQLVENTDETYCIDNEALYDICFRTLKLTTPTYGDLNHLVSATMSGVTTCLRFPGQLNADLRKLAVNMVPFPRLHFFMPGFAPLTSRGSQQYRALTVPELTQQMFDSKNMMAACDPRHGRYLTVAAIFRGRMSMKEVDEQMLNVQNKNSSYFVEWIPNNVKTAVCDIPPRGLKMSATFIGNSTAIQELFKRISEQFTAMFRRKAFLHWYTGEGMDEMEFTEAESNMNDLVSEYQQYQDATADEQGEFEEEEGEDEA

- decrease of thermal aggregation of tubulin: OD340 at 52°C for 60 min (Figure 4): 65%
B1: wt human αB crystallin (natural protein)
chain: MDIAIHHPWIRRPFFPFHSPSRLFDQFFGEHLLESDLFPTSTSLSPFYLRPPSFLRAPSWFDTGLSEMRLEKDRFSVNLDVKHFSPEELKVKVLGDVIEVHGKHEERQDEHGFISREFHRKYRIPADVDPLTITSSLSSDGVLTVNGPRKQVSGPERTIPITREEKPAVTAAPKK
